In article PMC10572585:

System: MBP-CPEB
Assay: EMSA
Conditions: 10 mM HEPES-KOH pH 7.9, 50 mM KCl, 1 mM MgCl2, 0.1 mM ZnCl2, 0.1% NP-40, 1 mM DTT, 2 ug yeast tRNA, 2 ug BSA, 12 U RNaseOUT, 10 uL, 15 fmol RNA, room …

Substance: c-myc 3'UTR pA2 wild type (cCPE + ncCPE1 + ncCPE2)
- Kd (two CPEB molecules bound (second shift)): 279 nM

Substance: c-myc pA2 cCPE only (ncCPE1 and ncCPE2 mutated)
- Kd: 212 nM

Substance: c-myc pA2 ncCPE1 only (cCPE and ncCPE2 mutated)
- Kd: 890 nM

Substance: c-myc pA2 ncCPE1/2 (cCPE mutated)
- Kd (no second CPEB binding): 891 nM

Substance: c-myc pA2 ncCPE2 only (cCPE and ncCPE1 mutated)
- Kd (low affinity, Kd lower bound): > 1000 nM
